# From paper PMC8335659
# B1: FLAG-tagged μ3 (natural protein)
# chain: MIHSLFLINCSGDIFLEKHWKSVVSQSVCDYFFEAQEKAADVENVPPVISTPHHYLISIYRDKLFFVSVIQTEVPPLFVIEFLHRVADTFQDYFGECSEAAIKDNVVIVYELLEEMLDNGFPLATESNILKELIKPPTILRSVVNSITGSSNVGDTLPTGQLSNIPWRRAGVKYTNNEAYFDVVEEIDAIIDKSGSTVFAEIQGVIDACIKLSGMPDLSLSFMNPRLLDDVSFHPCIRFKRWESERVLSFIPPDGNFRLISYRVSSQNLVAIPVYVKHSISFKENSSCGRFDITIGPKQNMGKTIEGITVTVHMPKVVLNMNLTPTQGSYTFDPVTKVLAWDVGKITPQKLPSLKGLVNLQSGAPKPEENPNLNIQFKIQQLAISGLKVNRLDMYGEKYKPFKGVKYVTKAGKFQVRT
# Target: GST-STG^9D
# Assay: pull-down; purified GST fusion of the STG C terminus incubated 1 h at 4 °C with lysate of HEK293T cells expressing FLAG-tagged μ2 or μ3, with or without 500 μM MPR^AA or MPR^DD peptide; glutathione Sepharose; blots with anti-FLAG and anti-GST
binder,measurement,value
B1,percent of μ3 pulled down (GST-STG^9A = 100%),21%
